The supplement of paper PMC10567573

B1: OR10K2 (parent)
chain: SLARLQQLLFVIFLLLYLFTLGTN

Variants of: B1
Assay: protein stability index of a GFP-peptide fusion (GPS, HEK-293T) (PSI 1-6); higher = more stable
Settings: c terminus: a fixed tail appended
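Further: lentivirally expressed fusions sorted by FACS into six bins by GFP to DsRed ratio, PSI derived from sequencing read proportions per bin multiplied by bin number.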

Protein stability index, by site and new letter:
F13: Q 3.04 | K 1.43 | G 1.73 | W 3.36 | A 2.44 | C 3.12 | H 2.96 | Y 3.74
L2: N 3.77 | D 2.06 | T 2.59 | I 3.49 | Q 2.62 | M 2.45 | R 2.48 | A 3.88 | G 1.4 | C 2.55 | E 2.01 | W 1.88 | Y 2.34 | F 2.52 | S 2.94 | K 2.49
V11: A 1.59 | P 2.94 | T 3.08 | Y 2.3 | H 2.61 | M 3.05 | F 2.58 | S 1.85
L5: S 3.05 | G 3.76 | I 1.78 | M 1.41 | T 2.28 | K 2.85 | R 1.85 | V 2.44 | D 3.05 | C 3.1 | H 2.62 | N 2 | W 3.37 | P 2.02 | E 2.27 | A 3.68 | F 2.59
A3: Q 3.09 | L 2.75 | E 1.91 | R 1.76 | F 1.86 | M 1.88 | H 3.07 | K 1.51 | G 1.49 | T 1.91 | W 2.23 | N 3.31
I12: K 3.69 | E 1.78 | H 2.02 | P 3.58 | L 2.29
L9: C 3.51 | K 3.92 | I 2.15 | P 3.06 | W 2.84
S1: T 2.85 | V 2.31 | K 2.87 | Y 3.24 | M 3.25 | C 2.44 | D 1.54 | G 2.86 | R 2.11 | W 1.59 | P 2.46 | H 2.88 | N 2.38 | L 3.72 | Q 2.21 | I 2.21 | E 2.11 | A 2.7 | F 1.35
Q6: I 2.84 | T 2.68 | M 2.94 | F 2.72 | E 3.01 | W 2.2 | G 2.56 | N 2.84 | C 2.58 | D 3.29 | A 2.61 | P 1.38 | L 2.97 | K 3.25 | V 2.45 | S 2.43 | Y 2.6 | H 2.35
R4: M 3.67 | L 3.28 | I 3.36 | A 4.04 | K 2.19 | Y 2.57 | H 2.36 | E 3.95 | W 2.28 | N 2.73 | P 2.24 | D 1.62 | F 2.36 | S 2.62
L14: G 2.6 | F 2.64
L8: E 1.9 | P 3.32 | D 2.99 | C 3.24 | A 1.98 | F 2.88 | I 2.4 | N 2.24 | R 3.34 | Y 3.36 | W 2.53 | V 2.17 | T 1.97 | S 2.86 | K 3.04 | G 2.92 | M 3.83
Q7: E 2.69 | V 2.1 | I 1.99 | S 2.11 | A 1.91 | Y 1.66 | N 3.21 | W 1.58 | L 1.72 | G 3.23 | R 2.45 | K 3.27 | P 1.9 | H 1.9 | T 1.74 | F 1.79 | M 2.14 | C 2.1
F10: G 3.07 | T 3.08 | N 2.18 | V 2.29 | Q 2.22 | I 4.24 | R 3.34 | Y 2.37
